Assay results from PMC12287161, “A bioactive soluble recombinant mouse LIGHT promotes effective tumor immune cell infiltration delaying tumor growth” (Journal of Molecular Medicine (Berlin, Germany), 2025).

T1: mHVEM:Fas (mouse | human, UniProt Q80WM9 39-206; P25445 169-335)
T1 chain: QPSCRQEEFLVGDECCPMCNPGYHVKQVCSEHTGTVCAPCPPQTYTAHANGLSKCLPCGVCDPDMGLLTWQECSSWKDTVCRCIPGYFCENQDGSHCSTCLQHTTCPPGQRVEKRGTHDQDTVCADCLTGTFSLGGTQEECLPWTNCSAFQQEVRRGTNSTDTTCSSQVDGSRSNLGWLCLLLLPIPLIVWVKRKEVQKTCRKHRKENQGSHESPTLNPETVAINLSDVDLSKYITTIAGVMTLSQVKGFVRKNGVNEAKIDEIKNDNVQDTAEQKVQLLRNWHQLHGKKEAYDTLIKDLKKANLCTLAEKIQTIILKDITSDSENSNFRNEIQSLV


Columns and labels:
mHVEM:Fas = molecular target: T1, mHVEM:Fas; test: cell-based or functional assay
[1] = molecular target: the molecule itself; test: SEC; Superdex S200 Increase HR 10/30 in PBS, 0.55 ml/min, 250 µl of affinity-purified protein; 1 ml fractions analysed by Western blot and on reporter cells; column calibrated with protein standards

Binder | EC50 of killing of mHVEM:Fas reporter cells (MTS/PMS) by conditioned supernatants of B16.F10 cells expressing Ig.Foldon-mLIGHT (mHVEM:Fas) [µg/mL] | EC50 of killing of mHVEM:Fas reporter cells (MTS/PMS) by purified Ig.Foldon-mLIGHT (mHVEM:Fas) [µg/mL] | stoichiometry N [1]
Ig.Foldon-mLIGHT (Fc fusion) GYIPEAPRDGQAYVRKDGEWVLLSTFLDGGKGSWEKLIQDQRSHQANPAAHLTGANASLIGIGGPLLWETRLGLAFLRGLTYHDGALVTMEPGYYYVYSKVQLSGVGCPQGLANGLPITHGLYKRTSRYPKELELLVSRRSPCGRANSSRVWWDSSFLGGVVHLEAGEEVVVRVPGNRLVRPRDGTRSYFGAFMV | 0.0019 | 0.051 | 
Flag-Foldon-mLIGHT (ligand, Foldon, small homotrimeric domain; mouse LIGHT (TNFSF14, CD258), aa 72-239 of the 239 amino acids-long protein; the majority ran as poorly active species of around 500 kDa; also called pIB-173; source: HEK-293T, conditioned supernatant) GYIPEAPRDGQAYVRKDGEWVLLSTFLDGGKGSWEKLIQDQRSHQANPAAHLTGANASLIGIGGPLLWETRLGLAFLRGLTYHDGALVTMEPGYYYVYSKVQLSGVGCPQGLANGLPITHGLYKRTSRYPKELELLVSRRSPCGRANSSRVWWDSSFLGGVVHLEAGEEVVVRVPGNRLVRPRDGTRSYFGAFMV |  |  | 3
